Experimental data: article PMC6823450
Where “and” joins values, the source holds several entries; their conditions need not be identical. Equal entries are not always repeated.

Legend:
[1] = target: HIV-1 matrix protein p17 (wild type) (HIV-1) (UniProt P03347); experiment: cross-linking; p17 (2 μg/ml in 20 μl) 2 h at 37 °C in PBS alone or with heparin, then 1 mM BS3 for 2 h at 37 °C; SDS-PAGE and Western blot with anti-p17; bands of 17, 34, 51 and 68 kDa quantified
[2] = target: HIV-1 matrix protein p17 (wild type) (HIV-1) (UniProt P03347); experiment: SPR; p17 immobilised on a CM5 sensorchip by amine coupling (2,500 RU); free p17 (15.7-2000 nM) injected in HBS-EP (10 mM HEPES pH 7.4, 150 mM NaCl, 3 mM EDTA, 0.005% P20) for 2 min; BIAcore X 100; Kd from equilibrium RU (saturation curve, Scatchard) with two softwares; cannot tell dimer, trimer or higher oligomers apart

HIV-1 matrix protein p17 (wild type) (from UniProt P03347 1-132) (natural protein)
% of total protein as dimer [1]: 29%
% of total protein as tetramer [1]: 3%
% of total protein as trimer [1]: 12%
% of total protein remaining monomer [1]: 59%
fold increase of dimer with heparin against no heparin [1]: 2 fold
fold increase of tetramer with heparin against no heparin [1]: 3.4 fold
fold increase of trimer with heparin against no heparin [1]: 4.2 fold
stoichiometry N [1]: 2 and 3 and 4
Kd [2]: 529 nM and 665 nM
